Reference: IntAct's records for PubMed 10801818

B1: Zyxin (Homo sapiens), Q15942 (parent)
chain: MAAPRPSPAISVSVSAPAFYAPQKKFGPVVAPKPKVNPFRPGDSEPPPAPGAQRAQMGRVGEIPPPPPEDFPLPPPPLAGDGDDAEGALGGAFPPPPPPIEESFPPAPLEEEIFPSPPPPPEEEGGPEAPIPPPPQPREKVSSIDLEIDSLSSLLDDMTKNDPFKARVSSGYVPPPVATPFSSKSSTKPAAGGTAPLPPWKSPSSSQPLPQVPAPAQSQTQFHVQPQPQPKPQVQLHVQSQTQPVSLANTQPRGPPASSPAPAPKFSPVTPKFTPVASKFSPGAPGGSGSQPNQKLGHPEALSAGTGSPQPPSFTYAQQREKPRVQEKQHPVPPPAQNQNQVRSPGAPGPLTLKEVEELEQLTQQLMQDMEHPQRQNVAVNELCGRCHQPLARAQPAVRALGQLFHIACFTCHQCAQQLQGQQFYSLEGAPYCEGCYTDTLEKCNTCGEPITDRMLRATGKAYHPHCFTCVVCARPLEGTSFIVDQANRPHCVPDYHKQYAPRCSVCSEPIMPEPGRDETVRVVALDKNFHMKCYKCEDCGKPLSIEADDNGCFPLDGHVLCRKCHTARAQT

Variants of: B1
Conditions: with enah_human ENAH

Variant | effect of a mutation on the interaction
MAAPRPSPAISVSVSAPAFYAPQKKFGPVVAPKPKVNPFRPGDSEPPPAPGAQRAQMGRVGEIPPPPPEDAPLPPPPLAGDGDDAEGALGGAFPPPPPPIEESFPPAPLEEEIFPSPPPPPEEEGGPEAPIPPPPQPREKVSSIDLEIDSLSSLLDDMTKNDPFKARVSSGYVPPPVATPFSSKSSTKPAAGGTAPLPPWKSPSSSQPLPQVPAPAQSQTQFHVQPQPQPKPQVQLHVQSQTQPVSLANTQPRGPPASSPAPAPKFSPVTPKFTPVASKFSPGAPGGSGSQPNQKLGHPEALSAGTGSPQPPSFTYAQQREKPRVQEKQHPVPPPAQNQNQVRSPGAPGPLTLKEVEELEQLTQQLMQDMEHPQRQNVAVNELCGRCHQPLARAQPAVRALGQLFHIACFTCHQCAQQLQGQQFYSLEGAPYCEGCYTDTLEKCNTCGEPITDRMLRATGKAYHPHCFTCVVCARPLEGTSFIVDQANRPHCVPDYHKQYAPRCSVCSEPIMPEPGRDETVRVVALDKNFHMKCYKCEDCGKPLSIEADDNGCFPLDGHVLCRKCHTARAQT [F71A] | decreasing interaction
MAAPRPSPAISVSVSAPAFYAPQKKFGPVVAPKPKVNPFRPGDSEPPPAPGAQRAQMGRVGEIPPPPPEDAPLPPPPLAGDGDDAEGALGGAAPPPPPPIEESFPPAPLEEEIFPSPPPPPEEEGGPEAPIPPPPQPREKVSSIDLEIDSLSSLLDDMTKNDPFKARVSSGYVPPPVATPFSSKSSTKPAAGGTAPLPPWKSPSSSQPLPQVPAPAQSQTQFHVQPQPQPKPQVQLHVQSQTQPVSLANTQPRGPPASSPAPAPKFSPVTPKFTPVASKFSPGAPGGSGSQPNQKLGHPEALSAGTGSPQPPSFTYAQQREKPRVQEKQHPVPPPAQNQNQVRSPGAPGPLTLKEVEELEQLTQQLMQDMEHPQRQNVAVNELCGRCHQPLARAQPAVRALGQLFHIACFTCHQCAQQLQGQQFYSLEGAPYCEGCYTDTLEKCNTCGEPITDRMLRATGKAYHPHCFTCVVCARPLEGTSFIVDQANRPHCVPDYHKQYAPRCSVCSEPIMPEPGRDETVRVVALDKNFHMKCYKCEDCGKPLSIEADDNGCFPLDGHVLCRKCHTARAQT [F71A;F93A] | decreasing interaction

The remaining lines, values ahead:

effect of a mutation on the interaction | Variant
decreasing interaction | MAAPRPSPAISVSVSAPAFYAPQKKFGPVVAPKPKVNPFRPGDSEPPPAPGAQRAQMGRVGEIPPPPPEDFPLPPPPLAGDGDDAEGALGGAAPPPPPPIEESFPPAPLEEEIFPSPPPPPEEEGGPEAPIPPPPQPREKVSSIDLEIDSLSSLLDDMTKNDPFKARVSSGYVPPPVATPFSSKSSTKPAAGGTAPLPPWKSPSSSQPLPQVPAPAQSQTQFHVQPQPQPKPQVQLHVQSQTQPVSLANTQPRGPPASSPAPAPKFSPVTPKFTPVASKFSPGAPGGSGSQPNQKLGHPEALSAGTGSPQPPSFTYAQQREKPRVQEKQHPVPPPAQNQNQVRSPGAPGPLTLKEVEELEQLTQQLMQDMEHPQRQNVAVNELCGRCHQPLARAQPAVRALGQLFHIACFTCHQCAQQLQGQQFYSLEGAPYCEGCYTDTLEKCNTCGEPITDRMLRATGKAYHPHCFTCVVCARPLEGTSFIVDQANRPHCVPDYHKQYAPRCSVCSEPIMPEPGRDETVRVVALDKNFHMKCYKCEDCGKPLSIEADDNGCFPLDGHVLCRKCHTARAQT [F93A]
decreasing interaction | MAAPRPSPAISVSVSAPAFYAPQKKFGPVVAPKPKVNPFRPGDSEPPPAPGAQRAQMGRVGEIPPPPPEDAPLPPPPLAGDGDDAEGALGGAAPPPPPPIEESAPPAPLEEEIFPSPPPPPEEEGGPEAPIPPPPQPREKVSSIDLEIDSLSSLLDDMTKNDPFKARVSSGYVPPPVATPFSSKSSTKPAAGGTAPLPPWKSPSSSQPLPQVPAPAQSQTQFHVQPQPQPKPQVQLHVQSQTQPVSLANTQPRGPPASSPAPAPKFSPVTPKFTPVASKFSPGAPGGSGSQPNQKLGHPEALSAGTGSPQPPSFTYAQQREKPRVQEKQHPVPPPAQNQNQVRSPGAPGPLTLKEVEELEQLTQQLMQDMEHPQRQNVAVNELCGRCHQPLARAQPAVRALGQLFHIACFTCHQCAQQLQGQQFYSLEGAPYCEGCYTDTLEKCNTCGEPITDRMLRATGKAYHPHCFTCVVCARPLEGTSFIVDQANRPHCVPDYHKQYAPRCSVCSEPIMPEPGRDETVRVVALDKNFHMKCYKCEDCGKPLSIEADDNGCFPLDGHVLCRKCHTARAQT [F71A;F93A;F104A]

Variants of: B1
Conditions: with enah_mouse Enah

Variant | effect of a mutation on the interaction
MAAPRPSPAISVSVSAPAFYAPQKKFGPVVAPKPKVNPFRPGDSEPPPAPGAQRAQMGRVGEIPPPPPEDAPLPPPPLAGDGDDAEGALGGAFPPPPPPIEESFPPAPLEEEIFPSPPPPPEEEGGPEAPIPPPPQPREKVSSIDLEIDSLSSLLDDMTKNDPFKARVSSGYVPPPVATPFSSKSSTKPAAGGTAPLPPWKSPSSSQPLPQVPAPAQSQTQFHVQPQPQPKPQVQLHVQSQTQPVSLANTQPRGPPASSPAPAPKFSPVTPKFTPVASKFSPGAPGGSGSQPNQKLGHPEALSAGTGSPQPPSFTYAQQREKPRVQEKQHPVPPPAQNQNQVRSPGAPGPLTLKEVEELEQLTQQLMQDMEHPQRQNVAVNELCGRCHQPLARAQPAVRALGQLFHIACFTCHQCAQQLQGQQFYSLEGAPYCEGCYTDTLEKCNTCGEPITDRMLRATGKAYHPHCFTCVVCARPLEGTSFIVDQANRPHCVPDYHKQYAPRCSVCSEPIMPEPGRDETVRVVALDKNFHMKCYKCEDCGKPLSIEADDNGCFPLDGHVLCRKCHTARAQT [F71A] | disrupting interaction
